Laboratory results as given in the supplement of paper PMC12042874.
± gives the uncertainty stated by the source.

Assay: amyloid nucleation score (Sup35N fusion, yeast selection) (log enrichment); library NNK1; higher = more nucleation; inactive = no reads after selection
Summary of the method: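 Three technical output replicates were used for random libraries. Psi-negative yeast expressing peptides of 20 random codons fused to Sup35N were induced with 100 μM copper sulfate for 24 hours and grown 7 days at 30°C on medium lacking adenine and uracil, and input and output plasmid inserts were Illumina-sequenced, excluding sequences with under 100 input reads. The nucleation score is the DiMSum log enrichment of output over input reads, centred on the mode score of non-aggregating sequences.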

VTLSLMCWNFALRFVSLGRS
amyloid nucleation score: 4.02 ± 0.071

VTLSTAIVTNEFMSDISTGY
amyloid nucleation score: -0.712 ± 0.52

VTMRLL
amyloid nucleation score: 0.968 ± 0.63

VTRCVAVAFSLGYLVIKCAL
amyloid nucleation score: -0.243 ± 0.76

VTSDLLD
amyloid nucleation score: 0.283 ± 0.4

VTSLYQDVT
amyloid nucleation score: -2.31 ± 2.4

VTSWDMS
amyloid nucleation score: 0.016 ± 0.26

VVADVAPR
amyloid nucleation score: -0.14 ± 0.34

VVCQVNIHLNGVCLHRCLEE
amyloid nucleation score: 6.862 ± 0.059

VVCRPTWRWGLKEIYE
amyloid nucleation score: -0.133 ± 0.83

VVEKYSCIRESFHEGFG
amyloid nucleation score: -1.07 ± 1.7

VVFSWRIDSFGREEKGA
amyloid nucleation score: 0.349 ± 0.81

VVGFYEWGQSREISSLRGGC
amyloid nucleation score: 0.382 ± 0.58

VVGVYYSCIYVGAYNLGSIP
amyloid nucleation score: 4.77 ± 0.1

VVLGCDVMLYRISFPFMIHS
amyloid nucleation score: -0.036 ± 0.47

VVLNIR
amyloid nucleation score: -0.232 ± 0.52

VVLRSGINL
amyloid nucleation score: -0.561 ± 0.29

VVMMWDI
amyloid nucleation score: inactive

VVMRPIFYGNSWLVRPLRNM
amyloid nucleation score: -0.272 ± 0.45

VVSRRVYDYTMDGLWGQ
amyloid nucleation score: 0.44 ± 0.36

VVSRWLRVFNFFEAKDFILV
amyloid nucleation score: -1.74 ± 2.7

VVSYTVQGGRSSHMANWG
amyloid nucleation score: 0.35 ± 0.92

VVVWVFHFYAC
amyloid nucleation score: 1.16 ± 0.71

VVYHT
amyloid nucleation score: -0.368 ± 0.28

VVYHVFFWELTNAKHNLPML
amyloid nucleation score: -1.17 ± 2.4

VWCRNAVDTMLIPMCTTPGY
amyloid nucleation score: 0.372 ± 0.6

VWIPYCLNFQSCNNHKLSLA
amyloid nucleation score: -1.13 ± 1

VWLMFLSWLV
amyloid nucleation score: -0.639 ± 0.78

VWLWDLA
amyloid nucleation score: 1.25 ± 0.62

VWRGRGCNHLYVMEEKLVGV
amyloid nucleation score: 0.623 ± 0.41

VWVKAMSFFWVIALPHAVYV
amyloid nucleation score: inactive

VYAYVSHLLIYVFSGRV
amyloid nucleation score: inactive

VYCCLNFLAFNFSWV
amyloid nucleation score: 6.308 ± 0.063

VYCSLPRFRHLTSSILVTII
amyloid nucleation score: -0.07 ± 1.4

VYFGDLLLKTSYL
amyloid nucleation score: -0.747 ± 1.1

VYFVTFWSYVNFHV
amyloid nucleation score: -0.208 ± 0.28

VYILLRVRVWSFYVVVVSRF
amyloid nucleation score: 0.484 ± 0.28

VYLGRFTPDGVMNYYNYSYV
amyloid nucleation score: -0.763 ± 1.4

VYLSRHTNRG
amyloid nucleation score: 1.53 ± 0.43

VYLVGASWPADVDEFGGRKD
amyloid nucleation score: -0.402 ± 0.54

VYMGFVCEIVVNKEKRVGTF
amyloid nucleation score: 0.008 ± 0.84

VYRNAINSVIHFDGVVWGVG
amyloid nucleation score: inactive

VYRRIYNFECWSSKCMLGYP
amyloid nucleation score: -0.129 ± 1.6

VYSGYSCCAWLLIWTSDGTD
amyloid nucleation score: 8.255 ± 0.048

VYTWPTICNCQRL
amyloid nucleation score: 0.128 ± 0.36

VYWNV
amyloid nucleation score: 1.1 ± 0.57

VYWTVDIWVFFVTAC
amyloid nucleation score: 1.49 ± 0.13

VYYIVFPTTLSVDKFFPIWC
amyloid nucleation score: 2.26 ± 0.18

WAILNDVMYHMWLNTFRTNV
amyloid nucleation score: -0.295 ± 0.64

WANRVCMCLRTSFYHL
amyloid nucleation score: 0.004 ± 0.62

WARESRIHTYVRVMFSGKWG
amyloid nucleation score: 0.517 ± 0.54

WAVRIVHMRVFFGLPVDW
amyloid nucleation score: -0.697 ± 0.58

WAWYLCSPESANFHNLHRLW
amyloid nucleation score: 0.324 ± 1.1

WAYWRYVNENRSVCRRKVGF
amyloid nucleation score: -0.053 ± 0.31

WCFVTHLLLCFLLDDKNFTW
amyloid nucleation score: inactive

WCGLARREKCRMPNGHRVHI
amyloid nucleation score: -0.497 ± 0.48

WCLSG
amyloid nucleation score: -0.498 ± 0.48

WCLWCVQVRFFFNVLFFK
amyloid nucleation score: 0.95 ± 0.44

WCQKYNFRCSVLDLTFSLLW
amyloid nucleation score: 6.71 ± 0.069

WCSLGCNYTVLFTLLGMVNT
amyloid nucleation score: 0.116 ± 0.37

WCVFSLLKCINSLAQHFKGS
amyloid nucleation score: inactive

WDHLRGLTCNVFIMIVKSFF
amyloid nucleation score: 1.4 ± 0.36

WDSLVLGKLYKLIFDQASPV
amyloid nucleation score: -1.31 ± 1.3

WDWGMCTCRWRDSAASWGKR
amyloid nucleation score: 0.432 ± 0.34

WEIAE
amyloid nucleation score: 0.939 ± 0.19

WENLKVSNYDLYSVLPLYGP
amyloid nucleation score: 0.381 ± 0.45

WFFAAVWVLEFYEFR
amyloid nucleation score: -0.432 ± 0.3

WFGSYWSIVVTTVRVIV
amyloid nucleation score: inactive

WFRIKGTGTLTPLKQHYSIN
amyloid nucleation score: -0.355 ± 0.56

WFRRLVTFSYNGWSYLSD
amyloid nucleation score: -0.779 ± 0.73

WFRSGDNLRIM
amyloid nucleation score: 1.65 ± 0.55

WFRVGVPHN
amyloid nucleation score: 0.472 ± 1.2

WFRYYYLFNRVRTFRERTNF
amyloid nucleation score: 0.094 ± 1.4

WFSAASGIMKEFSVG
amyloid nucleation score: -0.277 ± 0.36

WFVGGTWQGAMNKGPTFVN
amyloid nucleation score: 0.078 ± 0.56

WFVKLNFLCLCVNMDWHSTY
amyloid nucleation score: 0.352 ± 0.28

WGAYTLKVGVDLIP
amyloid nucleation score: 0.195 ± 0.57

WGSSLRRTYMFYLDFDGWVN
amyloid nucleation score: -0.405 ± 1.7

WGSYS
amyloid nucleation score: 0.118 ± 1.1

WHLSMRLDLPT
amyloid nucleation score: 0.363 ± 0.65

WHTRDYLKRRL
amyloid nucleation score: 0.906 ± 0.75

WISETMFSVSAMSPVTSDAF
amyloid nucleation score: -0.713 ± 0.4

WIVRPSGCGVTTR
amyloid nucleation score: -0.414 ± 0.69

WKMNGPFDFDPRRMISHDLK
amyloid nucleation score: -0.158 ± 0.42

WLCTMLYVVVIRGCNVGNLE
amyloid nucleation score: -0.393 ± 0.65

WLEGLKYKLAVDGRFNQSWG
amyloid nucleation score: -0.086 ± 0.81

WLGRYQLLWLALGWIITRRG
amyloid nucleation score: 1.51 ± 0.47

WLLNMENYWTVSTAGWSRWN
amyloid nucleation score: 0.332 ± 0.46

WLNSEAWDYLATLGLSFNYS
amyloid nucleation score: 0.761 ± 0.75

WLNWSSYRRTISKLVRGFFS
amyloid nucleation score: -0.295 ± 1.9

WLVHFDHTPNTSL
amyloid nucleation score: -0.069 ± 0.53

WLVTDFVCHLITNTIYTLLL
amyloid nucleation score: inactive

WNDRSGDVSLPCS
amyloid nucleation score: 0.027 ± 0.61

WNLNKYSFILALDGSYYVLN
amyloid nucleation score: 3.23 ± 0.24

WNQTSPRQCAVTMSANVTGN
amyloid nucleation score: 0.575 ± 0.68

WNRRGA
amyloid nucleation score: -0.054 ± 0.35

WNSRTSESC
amyloid nucleation score: 2.97 ± 0.15

WNSVVHINSVNYCV
amyloid nucleation score: 6.732 ± 0.059

WNYPYIFVGGPKKIGGGRRG
amyloid nucleation score: 0.584 ± 0.58

WNYRGIKYF
amyloid nucleation score: 0.129 ± 0.39

WNYSHEV
amyloid nucleation score: inactive

WPTLIINDAFILRRRNMDSE
amyloid nucleation score: -0.223 ± 0.32

WPVLFFI
amyloid nucleation score: -1.46 ± 1.8

WQKSWR
amyloid nucleation score: 5.24 ± 0.074

WRESSWLCMWERNVKVDWGR
amyloid nucleation score: -0.87 ± 1.7

WRFMRFSSGRFNIGEYI
amyloid nucleation score: -0.431 ± 1.4

WRLFIWDRGSLWFEISYYFR
amyloid nucleation score: -0.164 ± 0.3

WRRNGNAGMSNQCWVRVKFK
amyloid nucleation score: 0.775 ± 0.46

WRYKIIRSR
amyloid nucleation score: 1.5 ± 0.4

WSDHDCIRPNFKYCMIRGRS
amyloid nucleation score: 0.531 ± 0.3

WSISGELFTVVSDWPFCPIG
amyloid nucleation score: inactive

WSKCVCHLPR
amyloid nucleation score: -0.897 ± 1.6

WSNPPITCSSVGINHHVSVV
amyloid nucleation score: -0.171 ± 0.33

WSPTVAMLDGAVRGVAPATH
amyloid nucleation score: -0.7 ± 0.57

WSSYGCAAEMDALVCHGDAF
amyloid nucleation score: 1.47 ± 0.88

WSVVLDFTVDLVHFGPVGRC
amyloid nucleation score: 0.242 ± 0.36

WSYMVL
amyloid nucleation score: -0.645 ± 0.81

WTCLKQEPLAWRWL
amyloid nucleation score: -0.093 ± 0.94

WTQPVYLAEEGLRVLDNPKA
amyloid nucleation score: inactive

WTVSWHIVGYSRVDVMKRTK
amyloid nucleation score: inactive

WVLKL
amyloid nucleation score: 0.916 ± 0.54

WVLYSIILCERCNHKGTSDG
amyloid nucleation score: 0.057 ± 0.53

WVRLINSGGQSYFRCGEGRS
amyloid nucleation score: 0.654 ± 1.2

WVSANKSNCQMYSGTQTPCE
amyloid nucleation score: inactive

WVSSEWISTC
amyloid nucleation score: -0.268 ± 1.4

WWKRKTSFVSRSYQVRFAQF
amyloid nucleation score: -0.058 ± 1.1

WWVGCRACLPWDASSGKLLG
amyloid nucleation score: 0.139 ± 0.34

WYASRTTSIEYTKVYKCGGP
amyloid nucleation score: 0.599 ± 0.43

WYDAK
amyloid nucleation score: 0.286 ± 0.36

WYIMGFTNDRVLRNLMCYTC
amyloid nucleation score: 0.21 ± 0.35

WYLGNAPRGATRA
amyloid nucleation score: -0.229 ± 1

WYRLFALIGLAYLH
amyloid nucleation score: 0.586 ± 0.56

WYRVR
amyloid nucleation score: -0.421 ± 1.1

WYVLDDLHWIQGCNIGIVGG
amyloid nucleation score: inactive

YAAVLLNFT
amyloid nucleation score: 1.09 ± 0.28

YADWLEDCETVP
amyloid nucleation score: -0.309 ± 0.45

YAFGHFCTDADSFCGRCVIL
amyloid nucleation score: 0.09 ± 0.76

YAPLDDSMKLCHERGESLCM
amyloid nucleation score: 0.186 ± 0.83

YAQPIFKLCRTG
amyloid nucleation score: -0.921 ± 2.4

YARSSFEDIVVFRDRFG
amyloid nucleation score: 5.47 ± 0.092

YASGLILIKSPFV
amyloid nucleation score: 0.276 ± 0.34

YASLNYLLQGRVRA
amyloid nucleation score: inactive

YAYEIGFVILQFFNNRVFAL
amyloid nucleation score: inactive

YCDVSTYMSEHTISVAQAQS
amyloid nucleation score: 0.284 ± 0.41

YCHSVVFV
amyloid nucleation score: 0.352 ± 1

YCIASSVGWFVFVIWPLRKS
amyloid nucleation score: 0.065 ± 0.56

YCLSYEDCYWYVSVSLRYLW
amyloid nucleation score: -0.477 ± 0.31

YCMYMVWLKGK
amyloid nucleation score: -0.747 ± 0.37

YCPNLYVVDGCFVLNSKLIL
amyloid nucleation score: 5.63 ± 0.072

YCSQPSAWSLRLNRSCPHNM
amyloid nucleation score: -0.593 ± 1.1

YCVKV
amyloid nucleation score: 0.308 ± 0.62

YCVVFYP
amyloid nucleation score: 1.66 ± 0.61

YCWCINNH
amyloid nucleation score: 6.26 ± 0.084

YDGPLFVTFILI
amyloid nucleation score: 5.88 ± 0.077

YDNWVVGNYGLSAERICRVE
amyloid nucleation score: 0.085 ± 0.77

YDYMVALFSRS
amyloid nucleation score: -0.479 ± 0.66

YEMVRGCLNMSMMTDKFRAE
amyloid nucleation score: 0.851 ± 0.67

YEPDELTWSHCTELTEALML
amyloid nucleation score: -0.433 ± 0.66

YERVRPGAIHFRIETI
amyloid nucleation score: 0.146 ± 0.53

YEVIHICTNLEPIVRNCMGG
amyloid nucleation score: 7.024 ± 0.066

YFGDAGAFGFFSGLG
amyloid nucleation score: 0.192 ± 0.61

YFHPLTKLI
amyloid nucleation score: -0.288 ± 0.82

YFKFRGDDCENYWSVSGNEA
amyloid nucleation score: 0.111 ± 1.2

YFPVGWLTLGISPCGVGDLF
amyloid nucleation score: -0.151 ± 0.43

YFRCKFDRASIQHLIASRAH
amyloid nucleation score: 3.18 ± 0.19

YFRGNVNAWLLWSEICQVPF
amyloid nucleation score: 0.677 ± 0.88

YFTRFGHSELRSFMLVGTDM
amyloid nucleation score: -0.007 ± 0.28

YFWGKHTRFMISY
amyloid nucleation score: 0.018 ± 0.36

YFYDVMNLRCLVFNKSWFVL
amyloid nucleation score: 0.119 ± 0.51

YGEHWSS
amyloid nucleation score: 0.645 ± 1.2

YGILSLRICSLENSLSA
amyloid nucleation score: -1.34 ± 1

YGINNLPI
amyloid nucleation score: -1.23 ± 0.71

YGNIGV
amyloid nucleation score: 0.231 ± 0.81

YGNLYCQTFLVWCRNIFLLI
amyloid nucleation score: 0.255 ± 0.41

YGRGESMLHAGGNWEWTGQE
amyloid nucleation score: 0.09 ± 1.1
